# Assay results taken from US20200079833A1 (AstraZeneca / MedImmune, published 2020).
# Starred links: 1 amine or outer side, 2 acyl side, 3 side chain; linkers in the order of their positions; H or OH if unused. Non-standard residues stand in square brackets, D forms with d. Groups on a side chain read outwards from the residue. Primed or numbered codes have the meaning given here. No end group written: not given here. *: point of attachment. γGlu = O=C(O)[C@H](CCC(=O)[*:2])N[*:1]; αMeF = C[C@](N)(Cc1ccccc1)C(=O)O; αMeK = C[C@](N)(CCCCN)C(=O)O; Lauroyl = CCCCCCCCCCCC(=O)*; αMeS = C[C@](N)(CO)C(=O)O; PEG2′ = not defined here; Aib = CC(C)(N)C(=O)O
# Legend:
# Experiment in all cases: cell-based or functional assay
# [1] = target: T1, GLP-1R in the INS1e assay (UniProt P32301 22-463, limits assumed)
# T1 sequence (looked up): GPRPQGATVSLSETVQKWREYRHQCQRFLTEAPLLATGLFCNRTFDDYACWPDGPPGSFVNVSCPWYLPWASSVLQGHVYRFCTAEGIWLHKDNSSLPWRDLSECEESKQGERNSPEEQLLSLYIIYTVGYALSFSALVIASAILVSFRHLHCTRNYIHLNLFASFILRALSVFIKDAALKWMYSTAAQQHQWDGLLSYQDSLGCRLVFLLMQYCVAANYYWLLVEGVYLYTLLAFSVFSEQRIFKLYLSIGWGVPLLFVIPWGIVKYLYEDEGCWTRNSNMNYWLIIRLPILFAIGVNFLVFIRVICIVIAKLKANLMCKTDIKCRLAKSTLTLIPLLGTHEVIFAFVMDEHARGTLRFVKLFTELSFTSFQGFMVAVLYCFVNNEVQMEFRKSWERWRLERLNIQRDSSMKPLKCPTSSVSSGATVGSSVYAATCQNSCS
# [2] = target: glucagon receptor (GCGR), primary cAMP assay cell line (human, UniProt P47871 26-477)
# glucagon receptor (GCGR), primary cAMP assay cell line, sequence (P47871 26-477): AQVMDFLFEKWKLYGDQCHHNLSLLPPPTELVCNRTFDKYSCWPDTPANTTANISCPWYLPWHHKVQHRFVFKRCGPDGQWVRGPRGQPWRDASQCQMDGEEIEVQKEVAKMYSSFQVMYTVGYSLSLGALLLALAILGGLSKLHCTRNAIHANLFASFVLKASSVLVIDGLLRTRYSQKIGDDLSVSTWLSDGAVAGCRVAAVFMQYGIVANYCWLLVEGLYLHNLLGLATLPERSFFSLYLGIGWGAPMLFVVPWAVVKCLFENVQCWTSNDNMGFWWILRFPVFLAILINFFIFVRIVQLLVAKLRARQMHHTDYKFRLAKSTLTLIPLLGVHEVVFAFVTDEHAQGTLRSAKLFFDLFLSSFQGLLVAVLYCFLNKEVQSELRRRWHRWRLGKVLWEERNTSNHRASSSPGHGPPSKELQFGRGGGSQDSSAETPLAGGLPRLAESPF
# [3] = target: GLP-1 receptor (GLP-1R), primary cAMP assay cell line (human, UniProt P43220 24-463)
# [4] = target: T2, glucose-dependent insulinotropic peptide (gastric inhibitory polypeptide) receptor (GIPR), primary cAMP assay … (human, UniProt P48546 22-466)
# T2 sequence (looked up): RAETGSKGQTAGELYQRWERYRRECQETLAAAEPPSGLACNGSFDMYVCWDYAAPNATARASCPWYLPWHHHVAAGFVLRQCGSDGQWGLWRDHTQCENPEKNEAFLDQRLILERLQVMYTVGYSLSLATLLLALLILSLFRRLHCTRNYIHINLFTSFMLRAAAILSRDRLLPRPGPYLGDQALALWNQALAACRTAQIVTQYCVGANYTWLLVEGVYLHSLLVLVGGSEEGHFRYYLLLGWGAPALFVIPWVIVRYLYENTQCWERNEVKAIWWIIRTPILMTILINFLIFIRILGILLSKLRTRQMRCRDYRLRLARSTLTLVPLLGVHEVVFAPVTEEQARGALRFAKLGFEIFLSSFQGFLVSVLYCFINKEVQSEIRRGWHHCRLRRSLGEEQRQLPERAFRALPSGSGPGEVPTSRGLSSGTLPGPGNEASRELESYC
binder,measurement,setting,value
H[Aib]EGS[αMeF]TSDV[αMeS]SK([PEG2′-PEG2′-γGlu-Lauroyl])LEGEAA[αMeK]K([PEG2′-PEG2′-γGlu-Lauroyl])FIAFK([PEG2′-PEG2′-γGlu-Lauroyl])VEGG-NH2 [SEQ ID NO: 482],"cAMP INS1e assay EC50, Mean pM GLP-1R",[1],5860 pM
same,"cAMP INS1e assay EC50, n1",[1],8.57 nM
same,"cAMP INS1e assay EC50, n2",[1],3.15 nM
same,"cAMP Primary assay EC50, n1",[2],20 nM
same,"cAMP Primary assay EC50, n2",[2],20 nM
same,"cAMP Primary assay EC50, Mean pM GLP-1R",[3],36.3 pM
same,"cAMP Primary assay EC50, n1",[3],28.3 pM
same,"cAMP Primary assay EC50, n2",[3],44.2 pM
same,"cAMP Primary assay EC50, n1",[4],20 nM
same,"cAMP Primary assay EC50, n2",[4],20 nM
H[Aib]EGS[αMeF]TSDVSK([PEG2′-PEG2′-γGlu-Lauroyl])YLEGEAA[αMeK]K([PEG2′-PEG2′-γGlu-Lauroyl])FIAK([PEG2′-PEG2′-γGlu-Lauroyl])VVEGG-NH2 [SEQ ID NO: 462],"cAMP INS1e assay EC50, Mean pM GLP-1R",[1],4560 pM
same,"cAMP INS1e assay EC50, n1",[1],5.4 nM
same,"cAMP INS1e assay EC50, n2",[1],3.73 nM
same,"cAMP Primary assay EC50, n1",[2],20 nM
same,"cAMP Primary assay EC50, n2",[2],20 nM
same,"cAMP Primary assay EC50, Mean pM GLP-1R",[3],47 pM
same,"cAMP Primary assay EC50, n1",[3],37.6 pM
same,"cAMP Primary assay EC50, n2",[3],56.4 pM
same,"cAMP Primary assay EC50, n1",[4],20 nM
same,"cAMP Primary assay EC50, n2",[4],20 nM
H[Aib]EGS[αMeF]TSDV[αMeS]SK([PEG2′-PEG2′-γGlu-Lauroyl])LEGEAA[αMeK]K([PEG2′-PEG2′-γGlu-Lauroyl])FIAK([PEG2′-PEG2′-γGlu-Lauroyl])VVEGG-NH2 [SEQ ID NO: 466],"cAMP INS1e assay EC50, Mean pM GLP-1R",[1],3200 pM
same,"cAMP INS1e assay EC50, n1",[1],3.86 nM
same,"cAMP INS1e assay EC50, n2",[1],2.55 nM
same,"cAMP Primary assay EC50, n1",[2],20.2 nM
same,"cAMP Primary assay EC50, n2",[2],20.2 nM
same,"cAMP Primary assay EC50, Mean pM GLP-1R",[3],22.4 pM
same,"cAMP Primary assay EC50, n1",[3],17.2 pM
same,"cAMP Primary assay EC50, n2",[3],27.5 pM
same,"cAMP Primary assay EC50, n1",[4],20.2 nM
same,"cAMP Primary assay EC50, n2",[4],20.2 nM
H[Aib]EGS[αMeF]TSDV[αMeS]SYK([PEG2′-PEG2′-γGlu-Lauroyl])EGEK([PEG2′-PEG2′-γGlu-Lauroyl])A[αMeK]EFIAK([PEG2′-PEG2′-γGlu-Lauroyl])VVEGG-NH2 [SEQ ID NO: 469],"cAMP INS1e assay EC50, Mean pM GLP-1R",[1],4900 pM
same,"cAMP INS1e assay EC50, n1",[1],6.9 nM
same,"cAMP INS1e assay EC50, n2",[1],2.89 nM
same,"cAMP Primary assay EC50, n1",[2],19.8 nM
same,"cAMP Primary assay EC50, n2",[2],19.8 nM
same,"cAMP Primary assay EC50, Mean pM GLP-1R",[3],45.4 pM
same,"cAMP Primary assay EC50, n1",[3],41.8 pM
same,"cAMP Primary assay EC50, n2",[3],49 pM
same,"cAMP Primary assay EC50, n1",[4],19.8 nM
same,"cAMP Primary assay EC50, n2",[4],19.8 nM
H[Aib]EGS[αMeF]TSDV[αMeS]SYK([PEG2′-PEG2′-γGlu-Lauroyl])EGEAA[αMeK]K([PEG2′-PEG2′-γGlu-Lauroyl])FIAK([PEG2′-PEG2′-γGlu-Lauroyl])VVEGG-NH2 [SEQ ID NO: 470],"cAMP INS1e assay EC50, Mean pM GLP-1R",[1],3660 pM
same,"cAMP INS1e assay EC50, n1",[1],3.84 nM
same,"cAMP INS1e assay EC50, n2",[1],3.48 nM
same,"cAMP Primary assay EC50, n1",[2],20 nM
same,"cAMP Primary assay EC50, n2",[2],20 nM
same,"cAMP Primary assay EC50, Mean pM GLP-1R",[3],31.3 pM
same,"cAMP Primary assay EC50, n1",[3],26 pM
same,"cAMP Primary assay EC50, n2",[3],36.5 pM
same,"cAMP Primary assay EC50, n1",[4],20 nM
same,"cAMP Primary assay EC50, n2",[4],20 nM
H[Aib]EGS[αMeF]TSDV[αMeS]SK([PEG2′-PEG2′-γGlu-Lauroyl])LEGK([PEG2′-PEG2′-γGlu-Lauroyl])AA[αMeK]EFIAK([PEG2′-PEG2′-γGlu-Lauroyl])VVEGG-NH2 [SEQ ID NO: 464],"cAMP INS1e assay EC50, Mean pM GLP-1R",[1],4020 pM
same,"cAMP INS1e assay EC50, n1",[1],4.46 nM
same,"cAMP INS1e assay EC50, n2",[1],3.57 nM
same,"cAMP Primary assay EC50, n1",[2],20.2 nM
same,"cAMP Primary assay EC50, n2",[2],20.2 nM
same,"cAMP Primary assay EC50, Mean pM GLP-1R",[3],30.3 pM
same,"cAMP Primary assay EC50, n1",[3],25.4 pM
same,"cAMP Primary assay EC50, n2",[3],35.1 pM
same,"cAMP Primary assay EC50, n1",[4],20.2 nM
same,"cAMP Primary assay EC50, n2",[4],20.2 nM
H[Aib]EGS[αMeF]TSDV[αMeS]SYK([PEG2′-PEG2′-γGlu-Lauroyl])EK([PEG2′-PEG2′-γGlu-Lauroyl])EAA[αMeK]EFIAK([PEG2′-PEG2′-γGlu-Lauroyl])VVEGG-NH2 [SEQ ID NO: 467],"cAMP INS1e assay EC50, Mean pM GLP-1R",[1],8920 pM
same,"cAMP INS1e assay EC50, n1",[1],9.92 nM
same,"cAMP INS1e assay EC50, n2",[1],7.91 nM
same,"cAMP Primary assay EC50, n1",[2],19.8 nM
same,"cAMP Primary assay EC50, n2",[2],19.8 nM
same,"cAMP Primary assay EC50, Mean pM GLP-1R",[3],55.4 pM
same,"cAMP Primary assay EC50, n1",[3],49.3 pM
same,"cAMP Primary assay EC50, n2",[3],61.5 pM
same,"cAMP Primary assay EC50, n1",[4],19.8 nM
same,"cAMP Primary assay EC50, n2",[4],19.8 nM
H[Aib]EGS[αMeF]TSDV[αMeS]SK([PEG2′-PEG2′-γGlu-Lauroyl])LEGK([PEG2′-PEG2′-γGlu-Lauroyl])AA[αMeK]EFIAFK([PEG2′-PEG2′-γGlu-Lauroyl])VEGG-NH2 [SEQ ID NO: 480],"cAMP INS1e assay EC50, Mean pM GLP-1R",[1],6530 pM
same,"cAMP INS1e assay EC50, n1",[1],9.37 nM
same,"cAMP INS1e assay EC50, n2",[1],3.69 nM
same,"cAMP Primary assay EC50, n1",[2],20 nM
same,"cAMP Primary assay EC50, n2",[2],20 nM
same,"cAMP Primary assay EC50, Mean pM GLP-1R",[3],57.5 pM
same,"cAMP Primary assay EC50, n1",[3],56 pM
same,"cAMP Primary assay EC50, n2",[3],58.9 pM
same,"cAMP Primary assay EC50, n1",[4],20 nM
same,"cAMP Primary assay EC50, n2",[4],20 nM
